Where two headings read alike, the source gives them in different places.
How the values were obtained:
KISS1R = biological target: T1, KISS1R (Homo sapiens, UniProt Q969F8); test: Inositol phosphate (IP) accumulation assay in HEK 293‐T cells transiently transfected with KISS1R; format: cell-based; details: for EC50: HEK 293‐T cells expressing KISS1R
T1 construct: expressed in transfected cells; host or cells: HEK 293-T cells, transient transfection with XtremeGene HP
Protocol: HEK 293‐T cell culturing and the IP accumulation assay were performed as described by Newton et al.[15], [16] The IP assay measures the response of the cells to ligands that is a measure of the binding affinity and stimulation of intracellular signalling. This assay was applied to determine whether the novel ligand retained the same or improved activity as KP10.
HEK 293‐T cells were cultured and maintained using DMEM (10% FBS) media supplemented with Glutamax at 37°C, 5% CO2 and 95% relative humidity. HEK 293‐T cells were passaged at 90% confluency using Trypsin. HEK 293‐T cells were plated out into 24‐well plates at a density of 1 × 10^5 cells/well. Each well was pre‐coated with Matrigel at a 1:30 dilution to ensure adhesion to the well. KISS1R gene construct was transiently transfected into the HEK 293‐T cells at a concentration of 10 ng/μL of KISS1R using XtremeGene HP (1:2 ratio) DNA transfection reagent. Cells were incubated overnight at 37°C at 5% CO2.
For the IP assay, the HEK 293‐T cells were incubated with myoinositol‐[2‐3H] […] The radiolabelled IPs were separated using a Dowex 100–200 mesh resin ion‐exchange chromatography, and the radioactivity (cpm) was measured using liquid scintillation (Packard Tricarb 2100 TR liquid scintillation analyser TRI‐CARB 4910TR 110 V Liquid Scintillation Counter, Perkin‐Elmer, USA). […] The results were analysed by doing sigmoidal regression to determine the EC 50 and then compared with their respective normalised ligand signalling assay.
The accumulation of the IPs measured for cells transfected with XtremeGene without KISS1R and treated with maximal stimulation of KP10 (1 × 10^−6 M) was subtracted from the measured accumulation of cells stimulated with DOTA‐KP10 over a dose range ([…]–1 × 10^−6 M) that were transfected with KISS1R in the same assay.
For the IP assay, the data were fitted using a nonlinear regression to determine Emax and EC50. Data collected from the ex vivo biodistribution were evaluated using the Kruskal–Wallis analysis. […]

[1] = format: in vitro ADME, human
Protocol: The red blood cell (RBC) binding assay was performed by the method described by Shi and co‐workers.[22] In brief, radiolabelled [^68Ga]Ga‐DOTA‐KP10 (740 kBq in 10 μL) was mixed with 100 μL of human blood drawn up in the presence of heparin. The mixture was incubated in a shaking incubator at 37°C. Samples ([…]) were collected at two time points, 10 and 30 min. Plasma and blood cells were separated by centrifugation (2000 rpm, 5 min). The plasma was removed, and the blood cells were washed twice with 500 μL of normal saline (0.9% NaCl) that was then added to the plasma fraction. The amount (%) of labelled compound that was bound to the RBC was determined by the ratio of distribution between the plasma and blood cell fraction.[22]

[2] = parameters: species or system Sprague–Dawley rats; details: rat, in vivo, iv
Excerpt: All procedures followed during the animal studies adhered to institutional and South African national guidelines for the care and use of laboratory animals (SANS10386:2021). Ethical approval for the study was obtained from the Research Animal Ethics Committee of North-West University (NWU-00560-19-S5) and the University of Pretoria (149/2019), South Africa. The animals were provided by the Department of Science and Technology/North-West University Preclinical Drug Development Platform (PCDDP) Vivarium. The study was conducted at the Preclinical Imaging Facility (PCIF) of the Nuclear Medicine Research Infrastructure (NuMeRI), South Africa. Five healthy Sprague-Dawley rats (male, 6-8 weeks, ±200 g) were enrolled into the study. All animals had ad libitum access to a conventional rodent diet and water. Animals were maintained on a 12-h artificial day/night cycle and supplied with corn cob bedding and nesting material for cage enrichment. […] Hybrid images were viewed and analysed using the InterviewFusionTM software (Mediso, Hungary). A qualitative visual analysis was done on all acquisitions, and blood standardized uptake value values were calculated. […] Data collected from the ex vivo biodistribution were evaluated using the Kruskal-Wallis analysis. […] Organs were measured for activity and expressed as the percentage injected dose per gram of the organ (%ID/g). […]

[3] = format: in vitro ADME
Protocol: The protein binding assay was done as described by Mdlophane et al.[18] In brief, [^68Ga]Ga‐DOTA‐KP10 was incubated for 0, 60 and 120 min in serum at 37°C. Proteins were precipitated in ice‐cold acetonitrile (500 μL) and centrifuged (5000 rpm, 10 min). The supernatant was removed, and the protein pellet was washed with acetonitrile (250 μL). The washed protein pellets and supernatants were measured in an automated gamma‐counter (Hidex, Finland).

physchem = format: physicochemical
Protocol: The method published by Jain and co‐workers was used.[21] Briefly, 100 μL (± 100 MBq) of the labelled [^68Ga]Ga‐DOTA‐KP10 was dispersed in a 1‐mL phosphate‐buffered saline (PBS) and octanol mixture (0.9:1). The samples were vortexed (1 min) and then centrifuged (5 min, 6000 rpm). A sample (200 μL) from each phase was taken, and the activity was measured in the Hidex AMG automated gamma counter (Turku, Finland). The partition coefficient (log P) was expressed as the logarithm of the ratio of counts from the n‐octanol fraction versus that of the aqueous fraction.[21], [22]

in vivo = test: in vivo; parameters: species or system Sprague–Dawley rats; details: rat; for tissue uptake at 2.5 h: male, Sprague-Dawley, iv, 18.8 MBq, total radioactivity
Protocol: After the final image was acquired (150 min postinjection), the animals were euthanised and ex vivo biodistribution was performed. Euthanasia was performed by an overdose of isoflurane (without waking up post‐scan) followed by decapitation. A quantitative analysis of the radioactivity biodistribution and uptake in various organs of the rats was conducted. Following micro‐PET/CT imaging, the anesthetised animals were euthanised by decapitation and blood was collected into pre‐weighed BD SST vacutainer tubes (thermos Fisher Scientific, Johannesburg, South Africa). The blood samples were centrifuged (6000 rpm, 5 min) to separate the serum from the blood cells. The blood and serum along with the other dissected tissues and organs (heart, liver, spleen, intestines, testes, stomach, lungs and brain) were weighed, and the radioactivity was measured in the automated gamma counter (Hidex AMG, Turku, Finland). The radioactivity per organ was expressed as the percentage injected dose per gram of the organ (% ID/g). […] Data collected from the ex vivo biodistribution were evaluated using the Kruskal–Wallis analysis. A chi‐squared that was less than the H‐statistic was used to indicate significant differences between the concentrations within regions of interest. Organs were measured for activity and expressed as the percentage injected dose per gram of the organ (%ID/g). A multipoint regression model (exponential fit) was used to estimate blood‐half life.

[4] = format: in vitro ADME, human; remark: listed apart in the source
Protocol: Stability studies were performed in triplicate using [^68Ga]Ga‐DOTA‐KP10 spiked human serum, plasma or whole blood (samples were removed at 5, 60 and 120 min with incubation at 37°C). […] The samples taken (200 μL) at the selected time points were treated with ice‐cold acetonitrile (500 μL) and thereafter filtered with a 0.22‐μm filter to remove all residual proteins in the extract. This sample was then analysed by the HPLC method as described under Section 2.2.4.

T1 sequence (Q969F8 whole entry): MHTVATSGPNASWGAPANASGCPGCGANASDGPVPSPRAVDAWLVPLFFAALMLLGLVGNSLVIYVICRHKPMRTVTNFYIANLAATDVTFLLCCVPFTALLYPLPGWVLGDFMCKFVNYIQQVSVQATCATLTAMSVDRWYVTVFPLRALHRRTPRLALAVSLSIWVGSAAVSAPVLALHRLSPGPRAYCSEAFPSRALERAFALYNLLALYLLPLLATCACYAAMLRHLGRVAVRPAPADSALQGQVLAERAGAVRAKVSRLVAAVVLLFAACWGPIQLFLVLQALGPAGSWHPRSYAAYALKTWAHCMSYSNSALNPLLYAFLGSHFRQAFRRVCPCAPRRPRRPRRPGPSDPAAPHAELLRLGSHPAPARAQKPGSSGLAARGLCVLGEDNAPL

SMILES: CC(C)C[C@H](NC(=O)CNC(=O)[C@H](Cc1ccccc1)NC(=O)[C@H](CO)NC(=O)[C@H](CC(N)=O)NC(=O)[C@H](Cc1c[nH]c2ccccc12)NC(=O)[C@H](CC(N)=O)NC(=O)[C@H](Cc1ccc(O)cc1)NC(=O)CN1CCN(CC(=O)O)CCN(CC(=O)O)CCN(CC(=O)O)CC1)C(=O)N[C@@H](CCCNC(=N)N)C(=O)N[C@@H](Cc1ccccc1)C(N)=O [DOTA‐KP10]
- EC50 (KISS1R; four independent experiments, read-out: EC50): 3.99 nM
- Emax (KISS1R; HEK-293T, KP10 maximal response set at 100%, read-out: Maximal response as % of that of KP10): 97.8%

SMILES: CC(C)C[C@H](NC(=O)CNC(=O)[C@H](Cc1ccccc1)NC(=O)[C@H](CO)NC(=O)[C@H](CC(N)=O)NC(=O)[C@H](Cc1c[nH]c2ccccc12)NC(=O)[C@H](CC(N)=O)NC(=O)[C@@H](N)Cc1ccc(O)cc1)C(=O)N[C@@H](CCCNC(=N)N)C(=O)N[C@@H](Cc1ccccc1)C(N)=O [KP10, kisspeptin‐10]
- EC50 (KISS1R; 1 h ligand incubation at 37°C, 10 mM LiCl, mean ± SEM, N = 4, read-out: EC50 Mean nM ± SEM (N = 4)): 1.87 ± 0.095 nM

SMILES: CC(C)C[C@H](NC(=O)CNC(=O)[C@H](Cc1ccccc1)NC(=O)[C@H](CO)NC(=O)[C@H](CC(N)=O)NC(=O)[C@H](Cc1c[nH]c2ccccc12)NC(=O)[C@H](CC(N)=O)NC(=O)[C@H](Cc1ccc(O)cc1)NC(=O)CN1CCN(CC(=O)O)CCN(CC(=O)O)CCN(CC(=O)O)CC1)C(=O)N[C@@H](CCCNC(=N)N)C(=O)N[C@@H](Cc1ccccc1)C(N)=O [[^68Ga]Ga‐DOTA‐KP10, metal not drawn]
- Binding to red blood cells at 10 min [1]: 6.72 ± 0.37%
- Binding to red blood cells at 30 min [1]: 6.35 ± 2.7%
- Accumulation in the brain or lungs on micro‐PET/CT [2]: no noticeable accumulation
- Uptake in the hypothalamus on micro‐PET/CT images [2]: No uptake was observed
- Radioactivity bound to plasma proteins after initiating the incubation (0 min) [3]: 28.2 ± 1.35%
- Radioactivity bound to plasma proteins at 2 h [3]: 67.99 ± 3.56%
- logD (physchem): -2
- tissue uptake at 2.5 h (in vivo; Ex vivo radioactivity in kidneys): 1.5 ± 0.2 %ID/g
- tissue uptake at 2.5 h (in vivo; Ex vivo radioactivity in organs other than kidneys): < 0.5 %ID/g
- Serum:blood ratio (in vivo): sixfold to eightfold
- Stability in plasma at 5 min [4]: formation of a degradation product
- Stability in whole blood at 5 min [4]: formation of a degradation product

— PMC11919473, “Synthesis and characterisation of DOTA‐kisspeptin‐10 as a potential gallium‐68/lutetium‐177 pan‐tumour radiopharmaceutical” (Journal of Neuroendocrinology, 2025)
